Reference: article PMC11245102 (bioRxiv, 2024)
“And” between values parts separate entries of the source, which are not always exact repeats. Equal values may be shown once. Values belong to the molecule of their own block, whether it stands above or below them.

Legend:
[1] = target: type III CS from Cyanobium sp. PCC 7001 (Cyanobium sp. PCC 7001); experiment: mass photometry
[2] = target: non-mitochondrial CS (nmCS) from Chlamydomonas reinhardtii (Chlamydomonas reinhardtii); experiment: mass photometry
[3] = target: non-mitochondrial CS (nmCS) from C. fasciculata (C. fasciculata); experiment: mass photometry
[4] = target: type II CS from C. woesi (C. woesi); experiment: mass photometry
[5] = target: citrate synthase from M. sulfidovorans W150A (M. sulfidovorans); experiment: mass photometry
[6] = target: type II CS from F. taffensis (F. taffensis); experiment: mass photometry
[7] = target: CS from a Myxococcota species (type III CS) (a Myxococcota species); experiment: mass photometry
[8] = target: non-mitochondrial CS (nmCS) from Ananas comosus (Ananas comosus); experiment: cryo-EM structure
[9] = target: non-mitochondrial CS (nmCS) from Ananas comosus (Ananas comosus); experiment: mass photometry
[10] = target: non-mitochondrial CS (nmCS) from Ananas comosus (Ananas comosus); experiment: mass photometry; remark: listed apart in the source
[11] = target: the molecule itself; experiment: mass photometry

Molecule: type III CS from Cyanobium sp. PCC 7001 (enzyme)
stoichiometry N [1]: 2

Molecule: non-mitochondrial CS (nmCS) from Chlamydomonas reinhardtii (enzyme)
stoichiometry N [2]: 2

Molecule: non-mitochondrial CS (nmCS) from C. fasciculata (enzyme)
stoichiometry N [3]: 6

Molecule: type II CS from C. woesi (enzyme)
stoichiometry N [4]: 2

B1: non-mitochondrial CS (nmCS) from P. olsenii (enzyme)
chain: MDRLNTVAAHVAPTLTITDNRSGKKIDVKVKDGTIRATDLKQLGIQTYDPGYMNTTCCVSRISFIDGNRGVLRYRGYPIEQLAQDSSFTEVAFLLQYGELPTRGQLTQWEQDLMRHSMLHQDVATLTSAFRYDAHPMGMFVSAMAALGTLHPETNPALTSQNIYKDKAVRNKEIARILGSATTLAAMAYRHRMGRPFNTPNSDLGYTENFLYMLDVSHEGTSYRPHPKLVKALDVLFVLHAEHELNCSTSAMRHLTSSNVDVYTACAAAAGALYGPRHGGANEAVLRMLERIGSIENVPTFVDKVKQRKELLMGFGHRVYKHYDPRATIVRKIAEDVFEICGREPLIEVAMDLERIALSDPYFKDRKLYPNVDFYSGLIYKAMGFPTDMFPILFTVPRLAGWLAHWSEWIDDPENRIYRPFQVYKGYDKRDYVQVDERSEKVHSKELTVKRSAFNRRRDASLQSAAADRSEYEWIKD
stoichiometry N [11]: 6

B2: CS from A. comosus Δ487–513 (domain or fragment)
chain: MEGAFDHSALARARLAVLSGHLAAVSAAGGGASPLERSPVSVQEIPPPPRNLGGSLAVIDGRSGKKFEFKISDEGTVRATDFKKITTGKNDKGLKLYDPGYLNTAPVRSSICYIDGDEGILRYRGYPIEELAESSSYPEVAYLLMYGNLPSKSQLADWEFAISQHSAVPQGVLDIIQGMPHDAHPMGVLVCAMSALSVFHPDANPALRGQDLYKSKQLRDKQIVRILGKVPTIAAAAYLRLAGRPPVLPSNNFSYSENFLYMLDSLGNRSYKPNTRLARVLDILFILHAEHEMNCSTAAARHLASSGVDVFTALAGAVGALYGPLHGGANEAVLKMLNEIGTVENIPDFIEGVKNRKRKMSGFGHRVYKNYDPRAKVIRKLAEEVFSIVGRDPLIEVAIALEKAALSDEYFIKRKLYPNVDFYSGLIYRAMGFPTEFFPVLFAIPRMAGYLAHWRESLDDPDTKIMRPQQVYTGVWLRHYTPLQER
stoichiometry N [11]: 2

Second part, the molecule after the results:

stoichiometry N [5]: 2
Molecule: citrate synthase from M. sulfidovorans W150A (enzyme)

stoichiometry N [6]: 2
Molecule: type II CS from F. taffensis (enzyme)

stoichiometry N [7]: 2
Molecule: CS from a Myxococcota species (type III CS) (enzyme)

stoichiometry N [8]: 8 | stoichiometry N [9]: 6 and 8 | stoichiometry N [10]: 8
Molecule: non-mitochondrial CS (nmCS) from Ananas comosus (enzyme)
